From US20080206268A1 come the findings set out here.

The IC50 is the midpoint of a concentration-inhibition curve. A high value points to weaker potency in that assay.

Assay [1] deals with HLA-B60 on HLA typed EBV-LCLs (human). Nature of the assay: cell-based competition on acid-treated EBV-LCLs against 150 nM fluorescent reference peptide, flow cytometry. (In general: In flow cytometry, cells or beads pass a laser one at a time.)
For assay [2], the target named is HLA-A3 on HLA typed EBV-LCLs (human). Described as above.
For assay [3], the target named is HLA-A2 on HLA typed EBV-LCLs (human). Described as above. The conditions noted are these: remark: other sources report otherwise.
The target in assay [4] is HLA-B60 on HLA typed EBV-LCLs (human). Nature of the assay: cell-based competition assay, flow cytometry.
For assay [5] the target is unchanged. Description: cell-based competition on acid-treated EBV-LCLs against 150 nM fluorescent reference peptide, flow cytometry. This is another data set of the same source.
Assay [6] concerns the target recombinant HLA-A2.1 protein and b2-microglobulin (human). Nature of the assay: cell-free competition assay on recombinant HLA-A2.1, against HA-1^H peptide [..] as reference. The conditions noted are these: remark: other sources report otherwise.
Assay [7] deals with HLA-B60 on HLA typed EBV-LCLs (human). Nature of the assay: cell-based competition assay, flow cytometry. This is another data set of the same source.

Take KECVLHDDLL: the IC50 in assay [1] was 1 µM.

On to VLHDDLLEAR (modifications not checked), for which the IC50 in assay [2] is 15.6 µM.

In turn, VLHDDLLEA [HA-1^H peptide …] yielded an IC50 in assay [3] of 6.4 µM.

Regarding KECVLHDDL (modifications not checked) [nonameric HA-1^H peptide …], the IC50 in assay [4] is 1.6 to 5.3 µM; in assay [5], 5.3 µM.

As to VLRDDLLEA [HA-1^R peptide …], the fold lower binding affinity than the HA-1^H peptide in assay [6] worked out at 10 fold.

The molecule KESTLHLVL [HLA-B60 binder-positive control peptide …] returned an IC50 in assay [1] of 1.1 µM. This counts as single-digit micromolar.

As to KECVLRDDLL [decameric HA-1^R peptide …], the values for the IC50 in assay [7] and in assay [1] were 1.6 to 5.3 µM and 1.6 µM, respectively.
